Data from patent publication US20040136959A1 (published 2004).

T1: human IL-13 receptor α2 chain (IL-13Rα2) (human, UniProt Q14627 27-380)
T1 construct: also called IL-13Rα2 chain; IL-13Rα chain
T1 sequence: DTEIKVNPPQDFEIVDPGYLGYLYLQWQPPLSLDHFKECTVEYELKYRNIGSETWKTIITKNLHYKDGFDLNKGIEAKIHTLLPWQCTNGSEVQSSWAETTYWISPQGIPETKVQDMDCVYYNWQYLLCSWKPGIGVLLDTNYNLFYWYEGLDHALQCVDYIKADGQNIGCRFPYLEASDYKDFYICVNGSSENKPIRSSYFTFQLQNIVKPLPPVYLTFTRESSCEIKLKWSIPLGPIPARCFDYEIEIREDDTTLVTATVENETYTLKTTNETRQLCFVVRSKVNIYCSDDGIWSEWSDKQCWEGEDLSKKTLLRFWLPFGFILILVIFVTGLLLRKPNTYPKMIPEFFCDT


Tests used:
[1] = molecular target: IL-13 receptor (IL-13R) as naturally present on the human cell lines (human); assay: cell-based or functional assay
[2] = molecular target: human IL-13 receptor α2 chain (IL-13Rα2) (human) (UniProt Q14627); assay: cell-based or functional assay
[3] = molecular target: T1, human IL-13 receptor α2 chain (IL-13Rα2); assay: 125I-IL-4 radioreceptor binding on SCCHN cells, vector control against IL-13Rα2 transfectants

Molecule	IC50, inhibition of protein synthesis, A253 cells [1] [µg/mL]	IC50, inhibition of protein synthesis, Hep-2 cells [1] [µg/mL]	IC50, inhibition of protein synthesis, KB cells [1] [µg/mL]	IC50, inhibition of protein synthesis, KCCL871 cells [1] [µg/mL]	IC50, inhibition of protein synthesis, KCCT871 cells [1] [µg/mL]	IC50, inhibition of protein synthesis, KCCT891 cells [1] [µg/mL]	IC50, inhibition of protein synthesis, KCCTCM901 cells [1] [µg/mL]	IC50, inhibition of protein synthesis, RPMI2650 cells [1] [µg/mL]	IC50, inhibition of protein synthesis, YCU891 cells [1] [µg/mL]	IC50, inhibition of protein synthesis, YCUM862 cells [1] [µg/mL]	IC50, inhibition of protein synthesis, YCUT891 cells [1] [µg/mL]	IC50, inhibition of protein synthesis, YCUT892 cells [1] [µg/mL]	IC50, inhibition of protein synthesis, other 14 SCCHN cell lines [1] [µg/mL]	IC50, inhibition of protein synthesis, HN12 cells (IL-13Rα2-positive) [2] [µg/mL]	IC50, inhibition of protein synthesis, IL-13Rα2-positive SCCHN cell lines [2] [µg/mL]	IC50, inhibition of protein synthesis, KCCTC873 cells (IL-13Rα2-positive) [2] [µg/mL]	IC50, inhibition of protein synthesis, YCUM911 cells (IL-13Rα2-positive) [2] [µg/mL]	binding result [3]
IL-13-PE38 (from UniProt P35225 25-146; P11439 278-389; P11439 406-638)	0.155	0.2	0.1	0.185	0.275	> 1	0.11	> 1	0.5	> 1	> 1	> 1	0.1 to 1	0.0075	< 0.01	0.008	0.004	
Recombinant human IL-4 (ligand, UniProt P05112 25-153, looked up, also called unlabeled IL-4) HKCDITLQEIIKTLNSLTEQKTLCTELTVTDIFAASKNTTEKETFCRAATVLRQFYSHHEKDTRCLGATAQQFHRHKQLIRFLKRLDRNLWGLAGLNSCPVKEANQSTLENFLERLKTIMREKYSKCSS																		no binding
